Reference: PMC11068555

Legend:
[1] = target: WIV1 S Foldon his (prefusion stabilized spike ectodomain) (sarbecovirus WIV1 (clade 1a) | bacteriophage T4); assay: native gel or EMSA
[2] = target: SHC014 S Foldon his (prefusion stabilized spike ectodomain) (sarbecovirus SHC014 (clade 1a) | bacteriophage T4); assay: native gel or EMSA

Substance: WIV1 S Foldon his (prefusion stabilized spike ectodomain) (domain or fragment)
- stoichiometry N [1]: 3

Substance: SHC014 S Foldon his (prefusion stabilized spike ectodomain) (domain or fragment)
- stoichiometry N [2]: 3
